{
  "source": "patent US20140065154A1",
  "about": "“TLR3 BINDING AGENTS” (INNATE PHARMA, priority 2011, published 2014)",
  "key": {"COPD mouse model": {"system": "COPD mouse model", "experiment": "In vivo efficacy model of COPD (Elastin and LPS)", "set-up": "species or system mice", "conditions": "drug combination study", "procedure": "Three groups of 10 male mice were treated as follows: • 1 group of 10 mice with a vehicle. • 1 group of 10 mice with the anti-mouse TLR328G7 antibody administration (i.p., 500 μg/per mouse) on days 0, 3, 7, 10, 14, 17, 21 and 24. • 1 group of 10 mice with the positive control roflumilast (approved as […]; antagonist of PDE-4) (oral, 15 mg/kg, five times per week). All mice were treated at days 0, 7, 14 and 21 with Elastin and LPS (i.n.), to induce COPD. At day 28 mice were sacrificed for analysis. The cellular infiltrates into airways was measured by analysis of bronchoalveolar lavage (BAL) fluid by differential cell count on day 28. The oxygenation of venous blood was measured by gasometry on day 28. The level inflammatory mediators in BALF, through the analysis for protein levels of TNF-alpha, IL-6, IL-17A and IP-10 was performed by multiplex assay. […] Statistical analysis was performed on all data utilizing a Student's t test: '*' p<0.05; '**' p<0.005; '***'p<0.0005. […] All mice were treated with Elastin and LPS (i.n.), to induce COPD and sacrified as in study A. The cellular infiltrates into airways was measured by analysis of bronchoalveolar lavage (BAL) fluid by differential cell count as in Study A."}, "[1]": {"conditions": "cited from earlier work"}, "[2]": {"molecular_target": "T1, recombinant human TLR3 extracellular domain (R&D Systems) (human, UniProt O15455 27-711)", "T1 construct": "also called rhTLR3; human rec TLR3; not shown: His tag (R&D #1487-TR)", "experiment": "SPR (Biacore T100), rhTLR3 immobilised on CM5 chip, bivalent affinity, pH 5.6"}, "[3]": {"molecular_target": "T1, recombinant human TLR3 extracellular …", "experiment": "SPR (Biacore T100), rhTLR3 immobilised on CM5 chip, bivalent affinity, pH 7.2"}, "[4]": {"molecular_target": "T2, wild type human TLR3 expressed in 293T cells (human, UniProt O15455 24-904)", "experiment": "cell-based or functional assay"}, "TLR3 [5]": {"molecular_target": "T3, TLR3 (Homo sapiens, UniProt O15455)", "experiment": "293T-TLR3-ISRE luciferase reporter gene assay", "assay_type": "cell-based", "set-up": "host or cells: 293T (ATCC #CRL-1573), stably carrying pISRE-luc", "conditions": "dsRNA TLR3 agonist", "excerpt": "A reporter gene assay using as promoter ISRE (IFN-stimulated response element) and as reporter gene and protein luciferase was set up. A 293T cell line (ATCC, #CRL-1573) was stably transfected with pISRE-luc plasmid (#219089—Stratagene), further selected by cloning as inducing optimal response to IFN-alpha stimulation and referred to as control 293T-ISRE. This cell line was further stably transfected with pUNO-humanTLR3 plasmid (#puno-htlr3—InVivogen) or pUNO-mouseTLR3 plasmid (#puno-mtlr3—InVivogen) and referred to as 293T-TLR3-ISRE and 293T-mTLR3-ISRE respectively. On day 0, cells are seeded at 4×10^5 cells/mL in complete culture medium in 96-well culture plate (100 μl/well). Cells are first incubated at 37° C. for 20 hours, then 50 μL of medium are discarded and cells are activated with 100 μL/well final of increasing amounts of polyAU together with various concentrations of anti-TLR3 antibodies. Cells incubated with fresh medium will be used as background luciferase activity. Cells are incubated at 37° C. for 6 hours. 100 μL of freshly thawed Steady Glo (Promega) are added to each well, plates were incubated 10 min at RT in the dark and the light emitted in each well is quantified as Count Per Second (CPS) on a gamma-counter (TopCount) apparatus.\nAntibodies were tested for inhibition of TLR3 signaling in a luciferase based reporter gene activity (293T-TLR3-ISRE). […] Briefly, dsRNA TLR3 agonists were used to induce TLR3 signaling in the reporter assay in the presence of anti-TLR3 antibodies, and TLR3 signaling was assessed.\nIn a further set of experiments, 293-huTLR3 cells were incubated with different concentrations of the anti-TLR3 mAbs for 1 to 2 hours (see FIG. 1A; mAb concentration is represented in axis in μg/ml on a logarithmic scale) followed by the addition to the medium of the TLR3 agonist polyAU at a concentration of 300 μg/ml. Luciferase expression was measured after 6 h. […]\nSimilarly the kinetics of inhibition of the antibodies was evaluated in 293T-TLR3 luciferase assay. […] Luciferase expression was measured at 6 h post poly(A:U) addition. […]"}, "TLR3 [6]": {"molecular_target": "T3, TLR3", "experiment": "SPR competition assay with polyAU in acidic buffer", "assay_type": "binding", "set-up": "purchased R&D Systems", "conditions": "pH 5.6", "procedure": "(a) General Biacore T100 methods. SPR measurements were performed on a Biacore T100 apparatus (Biacore GE Healthcare) at 25° C. In all Biacore experiments HBS-EP+ buffer (Biacore GE Healthcare) or 10 mM sodium acetate pH 5.6, 150 mM NaCl, 0.05% P20 served as running buffer and sensorgrams were analyzed with Biaevaluation 4.1 and Biacore T100 Evaluation software. Recombinant human and mouse TLR3 were purchased from R&D Systems. (b) Protein immobilization. Recombinant TLR3 protein was immobilized covalently to carboxyl groups in the dextran layer of a Biacore Series 5 Sensor Chip CM5 (chip). The chip surface was activated with EDC/NHS (0.2M N-ethyl-N′-(3-dimethylaminopropyl) carbodiimidehydrochloride, 0.05M N-hydroxysuccinimide (Biacore GE Healthcare)). […] Deactivation of the remaining activated groups was performed using 100 mM ethanolamine pH 8 (Biacore GE Healthcare). (c) Antibody binding analysis was run using HBS-EP+ (neutral pH). Antibodies at a concentration of 10 μg/ml were injected for 2 min at a constant flow rate of 10 μl/min over the immobilized proteins and allowed to dissociate for 3 min before regeneration by a ten second injection of 10 mM NaOH, 500 mM NaCl regeneration buffer. Blank correction was performed on line by co-injecting the soluble antibodies onto the reference dextran flow cell. (d) Competition assay in acidic buffer (pH 5.6). Flow rate was set to 10 μl/min, the first antibody at a concentration of 50 μg/ml (or polyAU at 100 μg/ml) was injected for 2 min, 3 times successively in order to saturate the rhTLR3 surface. The second antibody (or polyAU at 100 μg/ml when the polyAU was added after first antibody) was then injected for 2 min also at 50 μg/ml and allowed to dissociate for 3 min before regeneration by a 15 second injection of 10 mM NaOH, 500 mM NaCl regeneration buffer. Blank correction was also performed on line and the curve using the saturating antibody (or neucleic acid) followed by an injection of buffer subtracted to remove the signal due to the dissociation of the first complex. The resulting signal was compared to that obtained by the injection of the second antibody directly onto the rhTLR3 surface.\nCompetition assays were conducted according to the methods described for SPR, item d) at pH 5.6.\nBuffer (followed by polyAU) is represented in the lower line, while 31C3 followed by polyAU is in the upper line."}, "[7]": {"molecular_target": "T2, wild type human TLR3 expressed in 293T …", "experiment": "cell-based or functional assay", "remark": "listed apart in the source"}},
  "note": "Like-named read-outs stand apart in the source and are kept apart here.",
  "data": [
    {"molecule": "O=C(Nc1c(Cl)cncc1Cl)c1ccc(OC(F)F)c(OCC2CC2)c1", "note": "[Roflumilast, roflumilast]", "values": [
      {"measurement": "BAL macrophages and lymphocytes", "setting": "COPD mouse model", "value": "decreases in macrophages"},
      {"measurement": "BAL neutrophil infiltration", "setting": "COPD mouse model", "value": "decreased infiltration of neutrophils into the airways"}
    ]},
    {"molecule": "Adalimumab", "values": [
      {"measurement": "half-life", "setting": "[1]; after a standard 40 mg dose", "value": "approximately 2 weeks"},
      {"measurement": "half-life (range)", "setting": "[1]; after a standard 40 mg dose", "value": "240 to 480", "unit": "h"}
    ]},
    {"molecule": "Etanercept", "values": [
      {"measurement": "half-life", "setting": "[1]; after a 25 mg dose", "value": 70, "unit": "h"}
    ]},
    {"molecule": "antibody 34A3 (antibody, V domains shown, Mouse hybridoma antibody (Balb/c, immunization series #2); also called 34A3.5; printed 34A4, 32A4 and 34A2 in some places) VH: EIQLQQSGPELVKPGASVKVSCKASGYVFTTYSIYWVKQSHGKSLEWIGYIDPYNGDTSYNQKFKGKATLTVDKSSSTAYMHLNSLTSEDSTVYYCAREGNYYGYFDYWGQGTTLTVS VL: QIVLTQSPALMSASPGEKVTMTCSASSSVSYMFWYQQKPRSSPKPWIYLTSNLASGVPARFSGSGSGTSYSLTISSMEAEDAATYYCQQWTGNPPTFGGGTKLEIK", "values": [
      {"measurement": "Kd", "setting": "[2]", "value": 0.0517, "unit": "nM"},
      {"measurement": "Kd", "setting": "[3]", "value": 0.00301, "unit": "nM"},
      {"measurement": "IC50, luciferase reporter inhibition test with 100 µg/ml of polyAU", "setting": "[4]", "value": "< 5", "unit": "µg/mL"}
    ]},
    {"molecule": "23C8: anti-human TLR3 monoclonal antibody, IgG1; VH SEQ ID NO: 26, VL SEQ ID NO: 27 (antibody, listed as Mus musculus, V domains shown, SIGNAL (1)..(19); SIGNAL (1)..(20)) VH: MGWSWIFLFLLSGTAGVLSEVQLQQSGPELVKPGASVKISCKASGYSFTGYFMHWVKQSHVKSLEWIGRINPYNGATSYNQNFKDKASLTVDKSSSTSYMELHSLTSEDSAVYYCVRDDGGNYPFDYWGQGTTLTVS VL: MSVPTQVLGLLLLWLTGARCDIQMTQSPASLSASVGETVTITCRASENIYSYLAWYQQKQGKSPQLLVYYAKTLAEGVPSRFSGSGTGTQFSLKINSLQPEDFGSYYCQHHYGTPYTFGGGTKLEIK", "values": [
      {"measurement": "inhibition of TLR3 signaling", "setting": "TLR3 [5]", "value": "strongly inhibited TLR3 signaling in a dose dependent fashion"},
      {"measurement": "antibody binding to TLR3 chip previously incubated with polyAU", "setting": "TLR3 [6]", "value": "able to bind TLR3 even in the presence of polyAU"}
    ]},
    {"molecule": "28F11: anti-human TLR3 monoclonal antibody, IgG1; VH SEQ ID NO: 18, VL SEQ ID NO: 19 (antibody, listed as Mus musculus, V domains shown, SIGNAL (1)..(19); SIGNAL (1)..(20)) VH: MGWSWIFLFLLSGTAGVLSEVQLQQSGPELVKPGASVKISCKASGYSFTGYYIHWVKQSHVKSLEWIGRINPYYGATSYNQNFKDKANLTVDKSSSTAYMELHSLTSDDSAVYYCARSTKLGYLDYWGQGTTLTVS VL: MSVPTQVLGLLLLWLTGARCDIQMTQSPASLSASVGETVTITCRASENIYSNLAWYQQKQGKSPQLLIYNAKTLAEGVPSRFSGSGSGTQYFLKINSLQPEDFGSYYCQHHYGTPFTFGGGTKLEIK", "values": [
      {"measurement": "inhibition of TLR3 signaling", "setting": "TLR3 [5]", "value": "strongly inhibited TLR3 signaling in a dose dependent fashion"},
      {"measurement": "antibody binding to TLR3 chip previously incubated with polyAU", "setting": "TLR3 [6]", "value": "able to bind TLR3 even in the presence of polyAU"}
    ]},
    {"molecule": "antibody 23C8 (antibody, V domains shown, also called 23C8.4) VH: EVQLQQSGPELVKPGASVKISCKASGYSFTGYFMHWVKQSHVKSLEWIGRINPYNGATSYNQNFKDKASLTVDKSSSTSYMELHSLTSEDSAVYYCVRDDGGNYPFDYWGQGTTLTVS VL: DIQMTQSPASLSASVGETVTITCRASENIYSYLAWYQQKQGKSPQLLVYYAKTLAEGVPSRFSGSGTGTQFSLKINSLQPEDFGSYYCQHHYGTPYTFGGGTKLEIK", "values": [
      {"measurement": "Kd", "setting": "[2]", "value": 0.0103, "unit": "nM"},
      {"measurement": "IC50 (µg/ml), inhibition of polyAU (300 µg/ml)-induced luciferase expression in 293-huTLR3 ISRE reporter cells", "setting": "[7]", "value": 1.83, "unit": "µg/mL"},
      {"measurement": "Kd", "setting": "[3]", "value": 0.138, "unit": "nM"},
      {"measurement": "IC50, luciferase reporter inhibition test with 100 µg/ml of polyAU", "setting": "[4]", "value": "< 5", "unit": "µg/mL"}
    ]},
    {"molecule": "antibody 28F11 (antibody, V domains shown) VH: EVQLQQSGPELVKPGASVKISCKASGYSFTGYYIHWVKQSHVKSLEWIGRINPYYGATSYNQNFKDKANLTVDKSSSTAYMELHSLTSDDSAVYYCARSTKLGYLDYWGQGTTLTVS VL: DIQMTQSPASLSASVGETVTITCRASENIYSNLAWYQQKQGKSPQLLIYNAKTLAEGVPSRFSGSGSGTQYFLKINSLQPEDFGSYYCQHHYGTPFTFGGGTKLEIK", "values": [
      {"measurement": "Kd", "setting": "[2]", "value": 0.335, "unit": "nM"},
      {"measurement": "IC50 (µg/ml), inhibition of polyAU (300 µg/ml)-induced luciferase expression in 293-huTLR3 ISRE reporter cells", "setting": "[7]", "value": 5.56, "unit": "µg/mL"},
      {"measurement": "Kd", "setting": "[3]", "value": 0.65, "unit": "nM"}
    ]}
  ]
}
